Where a chain is given by its changes, count along the chain named. Names may count otherwise.
B1: TaHPPD4-02: native HPPD of Triticum aestivum ecotype 4, UniProt A0A3B6NLC6, SEQ ID NO: 195 (protein, listed as Triticum aestivum)
chain: MPPTPTTPAATGAAAVTPEHARPRRMVRFNPRSDRFHTLAFHHVEFWCADAASAAGRFAFALGAPLAARSDLSTGNSVHASQLLRSGNLAFLFTAPYANGCDAATASLPSFSADAARQFSADHGLAVRSIALRVADAAEAFRASVDGGARPAFSPVDLGRGFGFAEVELYGDVVLRFVSHPDGRDVPFLPGFEGVSNPDAVDYGLTRFDHVVGNVPELAPAAAYVAGFTGFHEFAEFTTEDVGTAESGLNSMVLANNSEGVLLPLNEPVHGTKRRSQIQTFLEHHGGSGVQHIAVASSDVLRTLREMRARSAMGGFDFLPPPLPKYYEGVRRIAGDVLSEAQIKECQELGVLVDRDDQGVLLQIFTKPVGDRPTLFLEMIQRIGCMEKDERGEEYQKGGCGGFGKGNFSELFKSIEDYEKSLEAKQSAAVQGS
modifications: TaHPPD4 Amino Acid Sequence
B2: TaHPPD4m-F372A-02: Triticum aestivum ecotype 4 HPPD mutant F372A, SEQ ID NO: 198 (protein)
chain: B1 chain with F365A
modifications: TaHPPD4m-F372A Amino Acid Sequence
B3: TaHPPD2m-F372A-02: Triticum aestivum ecotype 2 HPPD mutant F372A, SEQ ID NO: 186 (protein)
chain: MPPTPTTPAATGAGAAAAVTPEHARPRRMVRFNPRSDRFHTLSFHHVEFWCADAASAAGRFAFALGAPLAARSDLSTGNSVHASQLLRSGNLAFLFTAPYANGCDAATASLPSFSADAARRFSADHGLAVRSIALRVADAAEAFRASVDGGARPAFSPVDLGRGFGFAEVELYGDVVLRFVSHPDDTDVPFLPGFEGVSNPDAVDYGLTRFDHVVGNVPELAPAAAYVAGFAGFHEFAEFTTEDVGTAESGLNSMVLANNSEGVLLPLNEPVHGTKRRSQIQTFLEHHGGSGVQHIAVASSDVLRTLREMRARSAMGGFDFLPPRCRKYYEGVRRIAGDVLSEAQIKECQELGVLVDRDDQGVLLQIATKPVGDRPTLFLEMIQRIGCMEKDERGEEYQKGGCGGFGKGNFSELFKSIEDYEKSLEAKQSAAVQGS
modifications: TaHPPD2m-F372A Amino Acid Sequence
B4: TaHPPD3-02: native HPPD of Triticum aestivum ecotype 3, UniProt A0A3B6PKV0, SEQ ID NO: 189 (protein, listed as Triticum aestivum)
chain: B3 chain with G14A, S43A, S291P, R325P, C326L, R327P, A368F, G435A
modifications: TaHPPD3 Amino Acid Sequence
B5: TaHPPD3m-F372A-02: Triticum aestivum ecotype 3 HPPD mutant F372A, SEQ ID NO: 192 (protein)
chain: B3 chain with G14A, S43A, S291P, R325P, C326L, R327P, G435A
modifications: TaHPPD3m-F372A Amino Acid Sequence
B6: TaHPPD5-02: native HPPD of Triticum aestivum ecotype 5, UniProt A0A3B6NNK0, SEQ ID NO: 201 (protein, listed as Triticum aestivum)
chain: MPPTPTTPAATGAAAVTPEHARPRRMVRFNPRSDRFHTLAFHHVEFWCADAASAAGRFAFALGAPLAARSDLSTGNSVHASQLLRSGNLAFLFTAPYANGCDAATASLPSFSADAARQFSADHGLAVRSIALRVADAAEAFRASVDGGARPAFSPVDLGRGFGFAEVELYGDVVLRFVSHPDGRDVPFLPGFEGVSNPDAVDYGLTRFDHVVGNVPELAPAAAYVAGFTGFHEFAEFTTEDVGTAESGLNSMVLANNSEGVLLPLNEPVHGTKRRSQIQTFLEHHGGSGVQHIAVASSDVLRTLREMRARSAMGGFDFLPPPLPKYYEGVRRIAGDVLSEAQIKECQELGVLVDRDDQGVLLQIFTKPVGDRPTLFLEMIQRIGCMEKDELFKSIEDYEKSLEAKQSAAVQGS
modifications: TaHPPD5 Amino Acid Sequence
B7: TaHPPD5m-F372A-02: Triticum aestivum ecotype 5 HPPD mutant F372A, SEQ ID NO: 204 (protein)
chain: B6 chain with F365A
modifications: TaHPPD5m-F372A Amino Acid Sequence

system: Arabidopsis thaliana T1 plants; experiment: Topramezone tolerance of transgenic Arabidopsis thaliana T1 plants (pesticide damage grade by bleached leaf area, score, resistance evaluation); assay type: in vivo; settings: topramezone 25 g ai/ha (1x); HPPDs from ecotypes of Triticum aestivum
In short: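 Herbicide tolerance was judged per plant on a bleaching scale (grade 0 no bleaching to grade 3 fully bleached) 7 DAT. Topramezone doses were 0, 25, 50 and 100 g ai/ha on 18-day-old T1 and wild-type plants.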

Row | Molecule | Resistance evaluation | Scores
1 | B1 | non-resistant (non-resistant plants (scores 68-100)) | 92
2 | B2 | highly resistant (highly resistant plants (scores 0-15)) | 0
3 | B3 | highly resistant (highly resistant plants (scores 0-15)) | 0
4 | B4 | non-resistant (non-resistant plants (scores 68-100)) | 100
5 | B5 | highly resistant (highly resistant plants (scores 0-15)) | 0
6 | B6 | non-resistant (non-resistant plants (scores 68-100)) | 83
7 | B7 | highly resistant (highly resistant plants (scores 0-15)) | 0

same assay, conditions: topramezone 25 g ai/ha (1x); number of plants; HPPDs from ecotypes of Triticum aestivum

Row | Molecule | Classification and statistics of pesticide damage grade: Grade 0 | Classification and statistics of pesticide damage grade: Grade 1 | Classification and statistics of pesticide damage grade: Grade 2 | Classification and statistics of pesticide damage grade: Grade 3
8 | B1 | 0 | 0 | 4 | 12
9 | B2 | 16 | 0 | 0 | 0
10 | B3 | 16 | 0 | 0 | 0
11 | B4 | 0 | 0 | 0 | 16
12 | B5 | 16 | 0 | 0 | 0
13 | B6 | 0 | 0 | 8 | 8
14 | B7 | 16 | 0 | 0 | 0

same assay, conditions: topramezone 100 g ai/ha (4x); HPPDs from ecotypes of Triticum aestivum

Row | Molecule | Resistance evaluation | Scores
15 | B1 | non-resistant (non-resistant plants (scores 68-100)) | 100
16 | B2 | highly resistant (highly resistant plants (scores 0-15)) | 10
17 | B3 | moderately resistant (moderately resistant plants (scores 16-33)) | 17
18 | B4 | non-resistant (non-resistant plants (scores 68-100)) | 100
19 | B5 | highly resistant (highly resistant plants (scores 0-15)) | 8
20 | B6 | non-resistant (non-resistant plants (scores 68-100)) | 96
21 | B7 | moderately resistant (moderately resistant plants (scores 16-33)) | 23

same assay, conditions: topramezone 100 g ai/ha (4x); number of plants; HPPDs from ecotypes of Triticum aestivum

Row | Molecule | Classification and statistics of pesticide damage grade: Grade 0 | Classification and statistics of pesticide damage grade: Grade 1 | Classification and statistics of pesticide damage grade: Grade 2 | Classification and statistics of pesticide damage grade: Grade 3
22 | B1 | 0 | 0 | 0 | 16
23 | B2 | 11 | 5 | 0 | 0
24 | B3 | 8 | 8 | 0 | 0
25 | B4 | 0 | 0 | 0 | 16
26 | B5 | 12 | 4 | 0 | 0
27 | B6 | 0 | 0 | 2 | 14
28 | B7 | 6 | 9 | 1 | 0
